How the values were obtained:
Cry j I reactive T cells = experiment: T cell proliferation assay, Cry j I primed T cell lines (Example 6); assay type: cell-based, human
Method: Viable cells were purified by LSM centrifugation and cultured in complete medium supplemented with 5 units recombinant human IL-2/ml and 5 units recombinant human IL-4/ml for up to three weeks until the cells no longer responded to lymphokines and were considered “rested”. The ability of the T cells to proliferate to selected peptides, recombinant Cry j I (rCry j I), purified native Cry j I, or recombinant Amb aI.1 (rAmb aI.1) or a positive control, phyto-hemaglutinin (PHA) was then assessed. For assay, 2×10^4 rested cells were restimulated in the presence of 2×10^4 autologous Epstein-Barr virus (EBV)-transformed B cells (prepared as described below) (gamma-irradiated with 25,000 RADS) with 2-50 μg/ml of selected peptides, Cry j I, purified native Cry j I or rAmb a I.1 or PHA, in a volume of 200 μl complete medium in duplicate or triplicate wells in 96-well round bottom plates for 2-4 days. […] Each well then received 1 μCi tritiated thymidine for 16-20 hours. The counts incorporated were collected onto glass fiber filter mats and processed for liquid scintillation counting. […] The titrations were used to optimize the dose of peptides in T cell assays. The maximum response in a titration of each peptide is expressed as the stimulation index (S.I.). The S.I. is the counts per minute (CPM) incorporated by cells in response to peptide, divided by the CPM incorporated by cells in medium only.
The above procedure was followed with a number of other patients. […] The bars represent the positivity index. Above each bar is the percent of positive responses with an S.I. of at least two to the peptide or protein in the group of patients tested. In parenthesis above each bar are the mean stimulation indices for each peptide or protein for the group of patients tested.
Autologous EBV-transformed cell lines were y-irradiated with 25,000 Rad and used as antigen presenting cells in secondary proliferation assays and secondary bulk stimulations. These EBV-transformed cell lines were made by incubating 5×10^6 PBL with 1 ml of B-59/8 Marmoset cell line (ATCC CRL1612, American Type Culture Collection, Rockville, Md.) conditioned medium in the presence of 1 μg/ml phorbol 12-myristate 13-acetate (PMA) at 37° C. for 60 minutes in 12×75 mm polypropylene round-bottom Falcon snap cap tubes (Becton Dickinson Labware, Lincoln Park, N.J.). These cells were then diluted to 1.25×10^6 cells/ml in RPMI-1640 as described above except supplemented with 10% heat-inactivated fetal bovine serum and cultured in 200 μl aliquots in flat bottom culture plates until visible colonies were detected. They were then transferred to larger wells until the cell lines were established.

[1] = system: Secondary T cell cultures reactive with Cry j I protein antigen; experiment: In vitro T cell proliferation assay, secondary T cell cultures of 36 Cry j I-allergic subjects, percent T cell reactivity algorithm; assay type: cell-based, human; conditions: patient 1308; highest S.I. >= 2.0 recorded per peptide
human allergic IgE = experiment: Capture ELISA with MAb CBF2; assay type: binding; conditions: pooled human plasma (15 patients), FIG. 10a
Method: Another method of analysis that was applied to the examination of IgE reactivity to the recombinant Cry j I was a capture ELISA. This analysis relies on the use of a defined antibody, in this case CBF2 to bind the antigen and allow for the binding of antibodies to other epitope sites. The format of this capture ELISA is 1) wells are coated with MAb CBF2, 2) antigen or PBS (as one type of negative control) is added and captured by specific interaction with the coated MAb, 3) either the control antibody anti-Amb a I & II (FIG. 10b) or human allergic plasma (FIG. 10a) is added as the detecting antibody, and 4) detection of antibody binding is assayed. FIGS. 10a and 10b are the graphed results of these assays. For the IgE analysis, the pooled human plasma (PHP) (15 patients) was used.

human basophil = experiment: Histamine release assay; assay type: cell-based; conditions: one Japanese cedar pollen allergic patient, FIG. 11
Method: To determine whether a peptide which binds IgE results in the release of mediators, a histamine release assay can be performed using standard reagents and protocols obtained for example, from Amac, Inc. (Westbrook, Me.). Briefly, a buffered solution of a peptide to be tested is combined with an equal volume of whole heparinized blood from an allergic subject. After mixing and incubation, the cells are pelleted and the supernatants are processed an analyzed using a radioimmunoassay to determine the amount of histamine released.
A histamine release assay was performed on one Japanese cedar pollen allergic patient using Japanese cedar pollen SPE, purified native Cry j I and rCry j I as the added antigens. This assay is a measure of IgE reactivity through human basophil mediator release. […] Two possible explanations for this release by the rCry j I are: 1) specific reactivity with a very low proportion of the anti-Cry j I IgE capable of recognizing the recombinant form of Cry j I, or 2) non-specific release caused by low abundance of bacterial contaminants observed only at the highest antigen concentration. […] In addition, the data shown are from single data points at each protein concentration.

IgE = experiment: RAST, competition ELISA and Western blotting (data not shown); assay type: binding, human
allergic patient IgE = experiment: Direct ELISA, IgE binding to rCry j I and Cry j I peptides (Example 8); set-up: species or system human
Method: The recombinant Cry j I protein (rCry j I), expressed in bacteria and then purified (as described in Example 5), has been examined for IgE reactivity. The first method applied to this examination was direct ELISA where wells were coated with the recombinant Cry j I and IgE binding was assayed on individual patients. FIG. 9 is the graphic representation of this direct ELISA.
To analyze IgE reactivity to selected Cry j I peptides a direct ELISA format was used. ELSIA wells were coated with 25 peptides derived from Cry j I and assayed for IgE binding. FIG. 15a and 15b are graphs of these binding results using PHP (15 patients) as the cedar pollen allergic IgE source. This pool of plasma was formulated for enrichment of IgE that could bind to denatured SPE (as determined by direct ELISA) and therefore increase the chance of reactivity toward the peptides.

Molecule	T cell line response (Cry j I reactive T cells; panel of twenty-five patients, FIG. 14)	STIMULATION INDEX [1]	specific binding of human allergic IgE, capture ELISA (human allergic IgE)	histamine release (human basophil)	percent of positive responses with an S.I. of at least two (Cry j I reactive T cells; 25 patients / T cell lines, FIG. 14) [%]	T cell proliferative response (Cry j I reactive T cells; patient #999, FIG. 12)	specific IgE reactivity (IgE)	IgE binding, direct ELISA (allergic patient IgE; PHP (15 patients), FIG. 15)	IgE reactivity, direct ELISA (allergic patient IgE; individual patients, FIG. 9)
CJ1-30: Cry j I peptide, SEQ ID NO: 55 (CSNWVWQSTQDVFYNGAYFV; listed as Cryptomeria japonica)	responded	0	–	–	–	–	–	–	–
rCry j I: recombinant Cry j I protein expressed in bacteria (E. coli) and purified (protein, left off: small tags and cut ends, recombinant Cry j I protein expressed in bacteria (E. coli) and purified) DNPIDSCWRGDSNWAQNRMKLADCAVGFGSSTMGGKGGDLYTVTNSDDDPVNPAPGTLRYGATRDRPLWIIFSGNMNIKLKMPMYIAGYKTFDGRGAQVYIGNGGPCVFIKRVSNVIIHGLYLYGCSTSVLGNVLINESFGVEPVHPQDGDALTLRTATNIWIDHNSFSNSSDGLVDVTLTSTGVTISNNLFFNHHKVMLLGHDDAYSDDKSMKVTVAFNQFGPNCGQRMPRARYGLVHVANNNYDPWTIYAIGGSSNPTILSEGNSFTAPNESYKKQVTIRIGCKTSSSCSNWVWQSTQDVFYNGAYFVSSGKYEGGNIYTKKEAFNVENGNATPQLTKNAGVLTCSLSKRC	–	–	no indication of any specific binding	only point where there is any measurable histamine release with the Cry j I is at the highest concentration	68.0	responds well	no specific IgE reactivity	does not bind	no IgE reactivity

From patent publication US8540999B2, “Allergenic proteins and peptides from Japanese cedar pollen” (Merck Patent GmbH, priority 1991, dated 2013)
